Among the data in patent US20240408194A1 (ARIZONA BOARD OF REGENTS ON BEHALF OF ARIZONA STATE …, published 2024) are Kd values, retold here.

The experiment deals with spike B1.17 (SARS-CoV-2).

B1: LCB1 protein (designed binder)
chain: DKEWILQKIYEIMRLLDELGHAEASMRVSDLIYEFMKKGDERLLEEAERLLEEVER
B1: the Kd was determined as 0.27 nM. This counts as sub-nanomolar.
